The values below are quoted from earlier work in paper PMC8174103.

The target of this data set is EGFR (Homo sapiens) (UniProt P00533).

On to EGF (from UniProt P01133), for which the Kd – broadly, the equilibrium constant for the complex coming apart – was 2 nM.
